From PMC11919693, “Structural basis of the mechanism and inhibition of a human ceramide synthase” (Nature Structural & Molecular Biology, 2024) come the findings set out here.

As a reminder, the stoichiometry N is a count of units in the complex or per binding partner.

For data set [1], the target named is T1, biotinylated C-terminally Avi-tagged human CerS6 (Homo sapiens, biotin on the Avi tag (in vitro, BirA)).
T1 construct: Ceramide synthase 6 (CerS6), Homo sapiens, UniProt Q6ZMG9; A Gly-Gly-Gly-Ser linker stands between CerS6 and the Avi tag, which lies upstream of the TEV cleavage site; also called biotinylated CerS6; Avi-tagged CerS6; not shown: Avi, C-terminal, kept; 10xHis, C-terminal, cleaved; Twin-Strep, C-terminal, cleaved
T1 chain: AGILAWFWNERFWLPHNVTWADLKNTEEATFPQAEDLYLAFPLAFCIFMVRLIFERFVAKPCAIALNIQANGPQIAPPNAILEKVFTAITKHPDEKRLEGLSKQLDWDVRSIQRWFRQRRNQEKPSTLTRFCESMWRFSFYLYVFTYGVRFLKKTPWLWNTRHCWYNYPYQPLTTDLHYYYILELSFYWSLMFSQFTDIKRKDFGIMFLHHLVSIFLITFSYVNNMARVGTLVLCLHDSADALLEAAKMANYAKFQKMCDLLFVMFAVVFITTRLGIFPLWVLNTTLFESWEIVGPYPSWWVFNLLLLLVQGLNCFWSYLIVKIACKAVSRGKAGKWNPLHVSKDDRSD
Kind of data set: BLI; Octet Red 384, Streptavidin SA biosensors loaded with 40 µg/ml biotinylated CerS6, SEC buffer with 0.003% LMNG and 0.0003% CHS; screen of unique nanobodies for slow off rates. The note with it: both partners purified. A general note: Biolayer interferometry detects binding as a change in optical thickness at a sensor tip.

The target of data set [2] is human ceramide synthase 6 (CerS6), truncated at Asp350 (Met1-Asp350) (human) (UniProt Q6ZMG9). Kind of data set: cryo-EM structure; CerS6 dimer mixed with a 1.5x molar excess of nanobody (Nb22 or Nb02), 1 h on ice, complex purified by SEC in GDN, 5 mg/ml; the CerS6–Nb22 complex also after incubation with 120 µM FB1; C2 symmetry imposed.
Data set [3] can be described thus: denaturing intact protein MS. The following applies: glycan lost; control: wild-type CerS6 (Met1-Asp350).
Data set [4] deals with the molecule itself. Kind of data set: cryo-EM structure; CerS6 dimer mixed with a 1.5x molar excess of nanobody (Nb22 or Nb02), 1 h on ice, complex purified by SEC in GDN, 5 mg/ml; the CerS6–Nb22 complex also after incubation with 120 µM FB1; C2 symmetry imposed. Background: In gel filtration, larger molecules generally elute earlier.

B1: nanobody 22 (Nb22), anti-CerS6 camelid nanobody (VHH)
VHH: QVQLVESGGGLVQAEGSLRLSCAASGRTFRTYGMGWFRQAPGKEREFVAALNWSGSSTYYADSVKGRFTISRDNAKNTAYLQMNSLKPEDTAVYYCAALRRKAEYGSRSIADFDSWSKGTPVTVSS
notes: alpaca nanobody raised against CerS6 proteoliposomes; its chain is in the deposited models PDB 8QZ6 and 8QZ7 (residues 1-124 modelled); source: WK6 cells, purified from periplasmic extracts (Ni2+-NTA)
B1: in data set [1], the binding result is listed as “binds”. This molecule also returned a stoichiometry N in data set [2] of 1 per monomer.

B2: nanobody 02 (Nb02), anti-CerS6 camelid nanobody (VHH)
VHH: QLQFVESGGGLVQAGGSLRLSCAASGRTFSRYAVGWFRQAPGKEREFVASITWNGATTYYADSVKGRFTISRDNAKNTVYLQMNSLKPEDTAVYYCALDLYSYGTRDVADFGSWGKGTRVTVSS
notes: alpaca nanobody raised against CerS6 proteoliposomes; its chain is in the deposited model PDB 9EOT (residues 1-123 modelled); source: WK6 cells, purified from periplasmic extracts (Ni2+-NTA)
As to B2, in data set [1], the binding result was “binds”. This molecule also had a stoichiometry N in data set [2] of 1.

B3: CerS6: N18Q (protein)
parent chain: MAGILAWFWNERFWLPHNVTWADLKNTEEATFPQAEDLYLAFPLAFCIFMVRLIFERFVAKPCAIALNIQANGPQIAPPNAILEKVFTAITKHPDEKRLEGLSKQLDWDVRSIQRWFRQRRNQEKPSTLTRFCESMWRFSFYLYVFTYGVRFLKKTPWLWNTRHCWYNYPYQPLTTDLHYYYILELSFYWSLMFSQFTDIKRKDFGIMFLHHLVSIFLITFSYVNNMARVGTLVLCLHDSADALLEAAKMANYAKFQKMCDLLFVMFAVVFITTRLGIFPLWVLNTTLFESWEIVGPYPSWWVFNLLLLLVQGLNCFWSYLIVKIACKAVSRGKVSKDDRSDIESSSDEEDSEPPGKNPHTATTTNGTSGTNGYLLTGSCSMDD
For the molecule B3, the “other: presence of covalent palmitoyl-enzyme adduct, other: adduct mass shift” value in data set [3] was “no change, +239.80 vs +238.45”.

B4: human ceramide synthase 6 (CerS6), truncated at Asp350 (Met1-Asp350) (enzyme, UniProt Q6ZMG9-2 1-350, looked up)
chain: MAGILAWFWNERFWLPHNVTWADLKNTEEATFPQAEDLYLAFPLAFCIFMVRLIFERFVAKPCAIALNIQANGPQIAPPNAILEKVFTAITKHPDEKRLEGLSKQLDWDVRSIQRWFRQRRNQEKPSTLTRFCESMWRFSFYLYVFTYGVRFLKKTPWLWNTRHCWYNYPYQPLTTDLHYYYILELSFYWSLMFSQFTDIKRKDFGIMFLHHLVSIFLITFSYVNNMARVGTLVLCLHDSADALLEAAKMANYAKFQKMCDLLFVMFAVVFITTRLGIFPLWVLNTTLFESWEIVGPYPSWWVFNLLLLLVQGLNCFWSYLIVKIACKAVSRGKAGKWNPLHVSKDDRSD
modifications: palmitoyl (C16:0) chain covalently attached to His211 (covalent intermediate state; transferred to FB1 in the N-palmitoyl FB1-bound state); N-linked glycan on Asn18; loss of the initiator methionine and acetylation of the new N terminus
notes: Ceramide synthase 6 (CerS6), Homo sapiens, UniProt Q6ZMG9, residues Met1-Asp350; C terminus predicted to be disordered removed; Purified as a mixture of monomer and dimer; the dimer SEC peak was used for the nanobody complexes and cryo-EM; also called acyl–CerS6; palmitoyl–CerS6; not shown: 10xHis, C-terminal, cleaved; Twin-Strep, C-terminal, cleaved
Take B4: the “stoichiometry N” value in data set [4] is 2.
